From US20230241072A1 (ALMAC DISCOVERY, published 2023) come the findings set out here.

Assay [1] addresses T1, human ROR1-hFc fusion protein (extracellular domain) (human, UniProt Q01973 30-406).
T1 construct: extracellular domain; Immobilised by amine coupling on COOH2 chips or AR2G sensors; also called hROR1; not shown: human Fc (hFc)
In words: SPR (Pioneer) or BLI (Octet K2); ROR1-hFc extracellular domain amine-coupled. The method, then:
(§1) VNARs were genetically fused to engineered hIgG1 Fc domains via standard [G₄S]₃ that contained a cysteine substitution in the hIgG1 Fc sequence, S239C (EU numbering). The VNAR Fc fusion proteins were expressed as secreted protein in CHO K1 cells and purified from the media using MabSelect™ SuRe™ (Evitria, Switzerland). Purified proteins were analysed by SEC (AdvanceBio, Agilent), SDS PAGE and mass spectrometry to confirm sequence and protein integrity. Binding kinetics were determined using a Pioneer Surface Plasmon Resonance (SPR) instrument (SensiQ/Pall ForteBio), or the Biolayer Interferometry (BLI) Octet K2 system (ForteBio). ROR1-hFc or ROR2-hFc fusion proteins (extracelluar domains) were immobilised in sodium acetate pH5 buffer to COOH₂ chips or AR2G sensors using amine coupling. VNARs and VNAR-Fc molecules were tested at various concentrations and the Ka (M⁻¹ s⁻¹), Kd (s⁻¹) and KD (nM) values were determined using QDat software (SensiQ/Pall ForteBio) or Octet Data Analysis High Throughput software (ForteBio) for Biolayer Interferometry.

Assay [2] deals with T2, human ROR2-hFc fusion protein (extracellular domain) (human, UniProt Q01974 34-403).
T2 construct: extracellular domain; Immobilised by amine coupling; also called hROR2; not shown: human Fc (hFc)
As to the kind of experiment: SPR (Pioneer) or BLI (Octet K2); ROR2-hFc extracellular domain amine-coupled. The method, then: as §1
On the technique in general: Biolayer interferometry detects binding as a change in optical thickness at a sensor tip.

Positions count from the first letter of the chain named. Names and notes keep the numbering of the source.

B1: hFc - P3A1 (Fc fusion)
chain: GGGGSGGGGSGGGGSTRVDQTPRTATKETGESLTINCVLTDTSYGLYSTSWFRKNPGTTDWERMSIGGRYVESVNKGAKSFSLRIKDLTVADSATYYCKAREARHPWLRQWYDGAGTVLTVN
notes: VNAR at the C-terminus of the Fc, by the printed name; not shown: human IgG1 Fc domain
By koff is commonly meant the rate constant with which the complex falls apart. Higher therefore signals a short-lived complex. For the molecule B1, the koff in assay [1] turned out to be 0.000776 s⁻¹. Also, the binding result in assay [2] is “no binding”.

B2: B1V15 hFc (Fc fusion)
chain: ASVTQSPRSASKETGESLTITCRVTGANYGLAATYWYRKNPGSSNQERISISGRYSESVNKRTMSFSLRISSLTVEDSATYYCKAYPWGAGAPWLVQWYDGQGTKLEVKGGGGSGGGGSGGGGS
notes: Humanised B1 variant fused to hFc; not shown: human IgG1 Fc domain
By Kd is commonly meant the equilibrium constant for the complex coming apart. Broadly, the kon is the rate constant with which the complex forms. High values mean faster complex formation, low ones slower complex formation. As for B2, in assay [1], the dissociation constant (Kd) was 0.726 nM, the off-rate (koff) was 0.00013 s⁻¹ and the kon turned out to be 179000 M⁻¹ s⁻¹. In addition, in assay [2], the binding result is “no binding”.

B3: P3A1 hFc(442) (Fc fusion)
chain: TRVDQTPRTATKETGESLTINCVLTDTSYGLYSTSWFRKNPGTTDWERMSIGGRYVESVNKGAKSFSLRIKDLTVADSATYYCKAREARHPWLRQWYDGAGTVLTVNGGGGSGGGGSGGGGS
notes: hIgG1 Fc with S442C (EU); also called P3A1hFc(S442C); not shown: human IgG1 Fc domain
In assay [1], B3 had a Kd of 0.741 nM, a koff of 0.0002 s⁻¹ and a kon of 270000 M⁻¹ s⁻¹. Moreover, in assay [2], the binding result is given as “no binding”.

B4: P3A1 hFc (Fc fusion)
chain: B3 chain
notes: VNAR fused to engineered hIgG1 Fc via [G4S]3; also called P3A1hFc(S239C); not shown: human IgG1 Fc domain
As to B4, in assay [1], the koff was 0.000564 s⁻¹. The binding result in assay [2] is listed as “no binding”.

B5: 2V hFc (Fc fusion)
chain: B3 chain with R86Q, E87S, A88L, R89A, H90I, P91S, W92T, L93R, R94S, Q95Y
notes: Control VNAR from a naive library, no known target; not shown: human IgG1 Fc domain
In the case of B5, the binding result in assay [1] and in assay [2] was “no binding” in each case.
